Assay: soluble on expression in E. coli; label from the status in PepcDB or PDB records

| Sequence | soluble on expression in E. coli |
| --- | --- |
| AIAKETEQVSEAPHGLEGAWLDLTNRVRVSGDTVEACSAFSIGPPRCRWLLQATDRGVNCAALDHYVPHICGTHTETVYHIAHHRYIKRAVCEIPFFRFHKARIQVCTAKIACTEQVLPSADTDYPCLEPNDLIVGPSALNRAPRYTRAQDSTIEALILIVVGPDGTSDWRDGKLDDRPPYLTPAAIESLATRYPNMRHLLTNLPSVDRRRDGGLVRSHRAFFATDFAGDGTPSESPQKTITELLRVPPDWQLYDDAEGVVCISLAPIEGLDAIPSSVYFKSH | soluble |
| MGSDKIHHHHHHMNFYRDATWVLEDIEKEAAKERISGSMQTLVLKSCKRYKLKSNPKHIYAVLDSCWKYKPYLEKVMKKAHILEDIPKKKGKPLFSRLTLLLLCHDLLLSKQKRIQMGKHPIKDYVLKFKSPLHSEMVKLKLKLKVRELSELVLSEDISNDLPPVRWIRINPLKCHPNGETEPVLAELRKKFTLKVDKWSELVPGSIYYDEFIPNLFGIHPSDKITAHELYKHGKIIIQDRASCFPAHILNPGPSDIVIDSCSAPGNKTTHTASYIYPEPPKDNNTRIYAFEKDPERAKVLQKMIKIAGCSPNISVNVGDFTKLATPEKYKDVTCFIVDPSCSGSGIFGRKFFDSFNRRKIDDKDDDGGIVPDEQEEFIAKEELQTRLAKLSSFQFQMVKHAMSFPAAKKIVYSTCSIHAEENERVVIDLLLDKSVREWGWKVAPKREVIPSWPRRGKVEEFEEVFRDGVTYDPQQLAEGCIRALPKSDGGIGFFAVCFERD | not soluble |
| MGHHHHHHSHMGKQKKTRKYATMKRMLSLRDQRLKEKDRLKPKKKEKKDPSALKEREVPQHPSCLFFQYNTQLGPPYHILVDTNFINFSIKAKLDLVQSMMDCLYAKCIPCITDCVMAEIEKLGQKYRVALRIAKDPRFERLPCTHKGTYADDCLVQRVTQHKCYIVATVDRDLKRRIRKIPGVPIMYISNHRYNIERMPDDYGAPRF | not soluble |
| MAHHHHHHMRMRPFTASTAATPTAAGAAPASSMSSPAPLRKARESATGSAGSYFLGSSTFSVYEEMARQLREEGWRRKTEAAIATADFILGDRFRIPYTLLRVERMARSSWFGGTRWVNYFEGSHRLTLKAAMVQLMKEVDTHWATWLPESYAVGGDQLKKADERRALLEALAAAGDDDAVWIVKPSSGAKGRHILLLRASAVPEWLERLPESSKSMYVVQRYVDRPLLLSNGRKFDIRVWALLVSPYSIYAYTQVSCRTASEPYDLSDITNTHVHLTNHCLQKDAAHFGEYEEENEMWLPQLQSYLTSIGKPADLLETRVLPAIKELLVRTLLAVMPEMAVPATEAYKCFQLFGYDMILTEEADVRLLEINGSPGVAERFLTPLVRSMRELLGAGPKDGTGSTTTTRNCDNTSHEGFSENGSSSNSGCASPTSASSSCPGRRRTSHAFSAATSATGATRNWRLEDEGFVLLWRRGDAVPPGLVDVC | not soluble |
| MADFDNLFDAAIARADETIRGYMGTSATITSGEQSGAVIRGVFDDPENISYAGQGVRVEGSSPSLFVRTDEVRQLRRGDTLTIGEENFWVDRVSPDDGGSCHLWLGRGVPPAVNRRR | soluble |
| VLNHSIEVALLAGYMASELGLNADKARRGGLLHDIGKAVDQELEGSHTTIGAELARRYGEKEDIINMILSHHGEEEPMTP | not soluble |
| GSHMKVLLLGFEFLPVKVGGLAEALTAISEALASLGHEVLVFTPSHGRFQGEEIGKIRVFGEEVQVKVSYEERGNLRIYRIGGGLLDSEDVYGPGWDGLIRKAVTFGRASVLLLNDLLREEPLPDVVHFHDWHTVFAGALIKKYFKIPAVFTIHRLNKSKLPAFYFHEAGLSELAPYPDIDPEHTGGYIADIVTTVSRGYLIDEWGFFRNFEGKITYVFNGIDCSFWNESYLTGSRDERKKSLLSKFGMDEGVTFMFIGRFDRGQKGVDVLLKAIEILSSKKEFQEMRFIIIGKGDPELEGWARSLEEKHGNVKVITEMLSREFVRELYGSVDFVIIPSYFEPFGLVALEAMCLGAIPIASAVGGLRDIITNETGILVKAGDPGELANAILKALELSRSDLSKFRENCKKRAMSFSWEKSAERYVKAYTGSIDRAFDFIL | soluble |
| MSLSAGETDERLRIATTTSLYDTKLLDTLESRFEEKYGIEVDVISGGTGFALEQGRRGDVDLLLVHDKAREYEFIAEGYGTERRCFAYNYFYIVGPADDPAGIKGTNASEAFRMIADAGEKNSNVRFVSRGDNSGTHAREKLLWKSAGIEPSGSWYLESGQGMGATLIMVDEKRAYTLTDMSTYMAFAGNLSLVPLVTESEELLNVYAAIPVSASEHLDDAERFVEFLLSQEGQEIIAGYGKDIYGRALFYPAAGHCTEIGCNATECPGEMVSAFGEGHHHHHH | soluble |
| MEKLEALKRLFPGKVDLSESERLRHGKDEGYPEARPVLAVVYPEGVEDVQKALRWAREWGVAVIPFGAGTSLEGHLYPVREAISLDLSRMNRVLEVRPQDFSCVVEPGLTRKALNEALKGTGLFFPVDPGADASLGGMAATNASGTTTVRYGGMRQNVLALQVVLASGEVLELGRGVRKTSSGYDLKDLFIGSEGTLGVITRLTLRLHPLPEHVHTLRVFFPGVEEAAEASYRIMASGLPVARLELLDELAMRALNRYLKAGFPERPALFLEFHASTKEALEAERASALELVREAGALEVEAATTEEERRRQWEARHQAYWALVHLFPGHRFMITDTAVPLSRLPEMVRFAQGLLREMGLTGNILGHVGDGNFHTLIPVLPEDYPKAEAYAERLVEKALELGGTCTAEHGVGLRKRKFLPKEHGPALEWMRRLKALFDPEGLLNPGKVV | soluble |
| MAFPRRLLSLSLRVKDLEAALFFYRDLLGLKVEADPPRYRLFPEGRGFLLELLHDPEAPLRPYPSLGLYHFALLLPHRKALAGVFRRLLEAGAHFEGAADHGVSEALYFRDPEGNGLELYRDRPKEAWPKGPLMFTAPLNLEKLLAENPDPTPLPPETLLGHLHLHVEDLAAAEAFFNGKLGMEVTLRTYPGALFFAWDGYHHHVGANTWAGRRKAPPGATGLLGYTLLAPPGVPPGEHPDPTGALARVLTEPPPSP | soluble |
| MAKTLYEKLFDSHIVYEAEGETPILYINRHLIHEVTSPQAFDGLRVANRQVRQVNKTFGTMDHSISTQVRDVNKLEGQAKIQVLELDKNTKATGIKLFDITTKEQGIVHVMGPEQGLTLPGMTIVCGDSHTATHGAFGALAFGIGTSEVEHVLATQTLKQARAKSMKIEVRGKVASGITAKDIILAIIGKTTMAGGTGHVVEFCGEAIQDLSMEGRMTVCNMAIEMGAKAGLIAPDETTFAYLKDRPHAPKGKDWEDAVAYWKTLKSDDDAQFDTVVTLEAKDIAPQVTWGTNPGQVISVNETIPNPQEMADPVQRASAEKALHYIGLEAGTNLKDIKVDQVFIGSCTNSRIEDLRAAAAVMKGRKKADNVKRILVVPGSGLVKEQAEKEGLDKIFIAAGAEWRNPGCSMCLGMNDDRLGEWERCASTSNRNFEGRQGRNGRTHLVSPAMAAAAGVFGKFVDIRDVTLN | not soluble |
| MAHHHHHHMNILHKIFTPGSKSKKTLLHCDAELGDRQSHSSSKVSTAVQVKSKLTAASSDDDDCGPLMRSVSMTVVSDPVPSSFKTNSSFANQSRPTQGPASFKSARLANSFSNASCHLERHHQHTAALASSVSRHNQRSLFDKIHSSGSFAVGETTVSGGSFTANGGTVNLWRLPWTQQKVTMCPNCHRPRQRDRTMQVSRASYTLQETTIENGMGDDMSEANEDMSYSDSEGMGGPMSDSVTCRCGVVSEGDAPLDYDDSAEATEEHPKLFVVETQNPSAVQLPGTIAEASDSEGEGREDVRRSYKLSLVSSPTPTSLRRRAPRVQPLLSGASPQTNTASVPKRVTHWLHEQQTSEARVVLKPKAAR | not soluble |
| MAHHHHHHMKGKGPIKIVLFGAPGVGKGTFAEILSKKENLKHINMGNILREEIKRKTTIGKEIDKVVTSGNLVGDDLIIRIVKDEIAKVTIQKDCYFKGFILDGFPRNLFQCNELAKITNIDLFINIYMPRHILIKKIMGRRICNDCNRNFNVVHIREDSYDMLPILPPQDCETCKGNPKLQTRSDDSEEIVAHRLNTYELTNSPLINFFKNSNCNFVDFEIKRGLQDFDSFYRIVSQNL | not soluble |
| MDLRDLKTFLHLAESRHFGRSARAMHVSPSTLSRQIQRLEEDLGQPLFVRDNRTVTLTEAGEELRVFAQQTLLQYQQLRHTLDQQGPSLSGELHIFCSVTAAYSHLPPILDRFRAEHPSVEIKLTTGDAADAMEKVVTGEADLAIAGKPETLPGAVAFSMLENLAVVLIAPALPCPVRNQVSVDKPDWSTVPFIMADQGPVRRRIELWFRRHKISNPQIYATVGGHEAMVSMVALGCGVALLPEVVLENSPEPVRNRVMILERSDEKTPFELGVCAQKKRLHEPLIDAFWKILPN | soluble |
| MAQDIKNEEVEEVQEEEVVKTAEETTPEKSELDLANERADEFENKYLRAHAEMQNIQRRANEERQNLQRYRSQDLAKAILPSLDNLERALAVEGLTDDVKKGLGMVQESLIHALKE | not soluble |
| MHENMKDSLKRPLQDLRISVIDRCNFRCTYCMPAEVFGPDYAFLQEECLLTFDEIERLARLFISMGVNKIRLTGGEPLLRKDLPKLIARLAKLEGLKDIGLTTNGIHLAKQAKALKEAGLKRVNISLDAIEDRVFQKINGRHVSTKPVLKGIEAAKEAGLEVKVNMVVKKGMNDSQILPMAQYFKEQEIQLRFIEFMDVGSTNGWNFEQVVTKEQLIEKINRVYPIEPVKPRYFGEVAKLYRYVGNDAEVGFITSVSESFCSSCTRARISADGKFYTCLFGEKGTDLRSLLRENISDASLLKILQHTWEFRTDRYSDERTAESTNKRQKVEMSYIGG | not soluble |
| MGSDKIHHHHHHMKREEIADLMAFVVVAEERSFTRAAARLSMAQSALSQIVRRIEERLGLRLLTRTTRSVVPTEAGEHLLSVLGPMLHDIDSAMASLSDLQNRPSGTIRITTVEHAAKTILLPAMRTFLKSHPEIDIQLTIDYGLTDVVSERFDAGVRLGGEMDKDMIAIRIGPDIPMAIVGSPDYFSRRSVPTSVSQLIDHQAINLYLPTSGTANRWRLIRGGREVRVRMEGQLLLNTIDLIIDAAIDGHGLAYLPYDQVERAIKEKKLIRVLDKFTPDLPGYHLYYPHRRHAGSAFSLFIDRLKYKGAV | not soluble |
| MSLGANIVSVEFIPVNVAATNWSENTVIVKVTDENGVYGLGEADGPPECMKAFSEIENEHKWLNNIKEAVIGRDPLEFRANYNRMYDTTKWIGMRGLGLFAISGIDMALYDLAGKQLGVPAYKLMGGAQKAQLTPYFTLYPSVAADATLSEIVEAYKPLIAKAKERGAKAVKVCIIPNDKVSDKEIVAYLRELREVIGWDMDMMVDCLYRWTDWQKARWTFRQLEDIDLYFIEACLQHDDLIGHQKLAAAINTRLCGAEMSTTRFEAQEWLEKTGISVVQSDYNRCGGVTELLRIMDICEHHNAQLMPHNWKTGITAAAARHFGIVCHISEYVEYLHPDFWNGTLTQQLTLNEPKIIDGAIEVSDKPGLGIELNIEFVEQVTGHKFEGHHHHHH | soluble |
| MVRHRLPSSTYYTPAGEPEWSREMFGEQSIAVLSGAYRNPIEMARHVAARCGSYQPFFVMDVAAIERRLEALRVMLPRVRPNYAVACNADPVLARVLSNNIDVNFEVSNTAELELVSMNVEPSRAVFCSQLMTRKAIKNAVLAGCSTFVVESEKQVTDVMNASPEAEIILAVCLPYSTGEVPFGCSVDEIEEILDMAHLLGANVTGIYLELGLRATLEDYITSVHDARSIFETADQKFLTLRRVCFGNLSVPTGADGAVNNEFMSFCNSLNNVIDDLFESNIDFSASIGRFLVTNAFTLCTNVIGKRAMDAKFITNDDFDDGVGFVYQTNDGVYGSFGCKQMDIKPLCKPLDVENDSEEQLHFGTILGPTLDGTDVAQRLMKSRQLRVGEWLVWEQMGAFTIPVDSEHSVPPVYYYSGKECWQKLIHKDEQRRSPSPSVSDNEDIGSDGEGGYASSCEDSEAEMALEPLIEDLNEFF | not soluble |
